In the nanobody polyreactivity screen of Harvey et al. (2022):

Test: yeast display, Sf9 membrane polyspecificity reagent, FACS + sequencing; frameworks hold sequencing errors
Summary of the method: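 Using colony PCR, genes from sorted yeast display clones were amplified, then sequenced on MiSeq at 2 × 250 and filtered by CDR length. The clones had been stained with 10% biotinylated, detergent-solubilized Sf9 membrane reagent for 1 hour at 4 °C and sorted by FACS into low and high (top ~1%) gates on anti-HA and streptavidin fluorescence. Polyreactivity labels come from the gate of origin.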

Sequence	polyreactivity (PSR sort gate)
QVQLVDSGGGLVQAGGSLRLRSAASGFTFCTYDMGWYRQAPGKERELVAAIDSGGSTYYADSVKGRFTISRDNAKNNVYLQMNSLKPEDTAVYYCNKVVDYFWYVEYDYWGQVTQVTVSS	low polyreactivity
QVQLVDSGGGLVQAGGSLRLSCAASGFIFSDYAMGWYRQAPGKEREFVAAISSGGSTYYADSVKGRFTISRDNAKNTVYLQMNSLKPEDTAVYYCNALWYREMDYWGQGTQVTVSS	high polyreactivity
QVQLVDSGGGLVQAGGSLRLSCAASGFIFVDYVMGWSRQAPGKERELVAAITRGGSTNYADSVKGRFTISRDNAKNTVYLQMNSLKPEDTAVYYCAVRWYRKYNYWGQGTQVTVSS	high polyreactivity
QVQLVDSGGGLVQAGGSLRLSCAASGFTFYAYGRGWNRQAPGKERELVATITWCGGNTYYADSVKGRFTISRDNAKNTVYLQMNSLKPEDTAVYYCAARLPSPIRPSRGYYDYWGQGTQVTVSS	low polyreactivity
QVQLVDSGGGLVQAGGSLRLSCAASGFTSTRYSMGWYREAPGKERELVAAISYGGGDTYYADSVKGRFTISRDNPKNTVYLQMNSLKPEDTAVYYCNARGRDRKSERRAFDYWGQGTQVTVSS	high polyreactivity
QVQLVDSGGGLVQAGGSLRLSCAASGGTFTAYTMGWYRQAPGKERELVAAITGDTSTNYADSVKGRFTISRDNAKNTVYLQMNSLKPVDTAVYYCAADVPRSYWRGYDYWGQGTQVTVSS	low polyreactivity
QVQLVDSGGGLVQAGGSLRLSCAASGINFQGNAMGWYRQAPGKERELVASITAGGDTTYYADSVKGRFTISRDNAKNTVYLQMNSLKPEDTAVYYCAVDSWLDADDSYPDSILVDYWGQGTQVTVSS	low polyreactivity
QVQLVDSGGGLVQAGGSLRLSCAASGITFYRYTMGWYRQGPGKERELVATITSGASTSYADSVKGRFTISRDNAKNTVYLQMNCLKPEDTAVYYCAARRTRVTGRYSVYAFDYWGQGTQVTVSS	low polyreactivity
QVQLVDSGGGLVQAGGSLRLSCAASGLIIWRNAMGWYRQAPGKERELVAAITYSGSRTYYADSVKGRFTISRDNAKNTVYLLMNSLKPEDTAVYYCNADYYWYPYEDDNWGQGTQVTVSS	low polyreactivity
QVQLVDSGGGLVQAGGSLRLSCAASGLIVFYAMGWYRQAPGKERELVAGISSGGNTNYADSVKGRFTISRDNAKNTFYLQMNSMKPQDTSVYYCAAVYLLSSYDFWGQGTQVTVSS	high polyreactivity
QVQLVDSGGGLVQAGGSLRLSCAASGLTCRKYTMGWYRQAPGKERELVAAISFRGGSTYYADSVKGRFTISRDNAKNTVYLQMNSLKPEDTAVYYCNARKRYSTDPGDYWGQGTQVTVSS	high polyreactivity
QVQLVDSGGGLVQAGGSLRLSCAASGLTITVYVMGWYRQAPGKERELVAAIDWSGGSTYYADSVKGRFTISRDNAKNTVYLQMNSLKPEDTAVYYCASETTDYAYYGFTYDYWGQGTQVTVSS	low polyreactivity
QVQLVDSGGGLVQAGGSLRLSCAASGRIFFANAMGWYRQAPGKERELVAAISWRGGSTYYADSVKGRFTISRDNAKNTVYLQKNSLKPEDTAVYYCAATSRGTDYWGQGTQVTLSS	high polyreactivity
QVQLVDSGGGLVQAGGSLRLSCAASGRIFIVNPMGRYRQAPGKEREFVAAITSRGGITYYADSVKGRFTISRDNAKNTVYLQMNTLKPEDTAVYYFAAGYISWGSGNWGVTPYDYWGQGTQVTVSS	high polyreactivity
QVQLVDSGGGLVQAGGSLRLSCAASGRIFPWYAMGWYRQAPGKEMELVAAINWRAGLTYYADSVKGRFTISRDYAKNTVYLQMNSLKPEDTAVYYCNARSGRGQAYGYWGQGTQVSVSS	high polyreactivity
QVQLVDSGGGLVQAGGSLRLSCAASGRIFRDNCMVCYRQAPGKERELVAAIRRSGGSTYYADSVKGRFTISRDNAKNSVYLQMNSLIPEDTAVYYCATPPYPGREYWGQGSQVTVSS	high polyreactivity
QVQLVDSGGGLVQAGGSLRLSCAASGRIFYPYAMGWYREATGKERELVAAMTRRTASTYYADSVKGRFTISRDNAKNTVYLQMNSLKPQDTAVYYCAAVSYLKRPYYAGYYYWGQGTQVTVSS	high polyreactivity
QVQLVDSGGGLVQAGGSLRLSCAASGRNFLWNAMGWDRQAPGKERELVAGISWRGSSTYYAVSVKGRFTISRDNAKNTVYLQMNSLKPEDTAVYYCAAQGRPYRGQRTGAYGYWGQGTQVTVSS	high polyreactivity
QVQLVDSGGGLVQAGGSLRLSCAASGRTFGYYAMGWYRQAPGKERELVAAISGSGGSTYYADSVKGRFTISRDNAKNTVYLQMNSLIPEDTAVYYCIVYPPYAMDYWGQGTQVTVSS	high polyreactivity
QVQLVDSGGGLVQAGGSLRLSCAASGRTFTQNAKGWYRPAPGKERELVAAIRRGGSTNYADSVKWRFTISRDNAKNTVYLQMKSLKPEDTAVYYCATECYYGFSYRYDFWGLGTQVTVSS	high polyreactivity
QVQLVDSGGGLVQAGGSLRLSCAASGRTFTRNAMGWYRPATRQERELLAAISFTGGRTYYADSVKGRFTISRDNAKNTVYLQMNSLNPEDTAVYYCNTTSRRSQVGYSTRYDYWGQGTQVTVSS	high polyreactivity
QVQLVDSGGGLVQAGGSLRLSCAASGRTFTYYAMGWYRQAPGKERELVASISTTGRTYYADSVKGRFTITRDNAKNTVYLQMNSLKREDTAVYYCNASRVRRWNDYYKKFDYWGQGTQVTVSS	high polyreactivity

Sequence	polyreactivity (PSR sort gate)
QVQLVDSGGGLVQAGGSLRLSCAASGRTFWQYAMGWYRQAPGKERELVAAISRSGGSTYYADSVKGRFTISRDNAQNTVSLQMNSLKPEDTAVYYCAAYYLGYNYDYWGQGTQVTVSS	high polyreactivity
QVQLVDSGGGLVQAGGSLRLSCAASGRTIHGYAMGWYRQAPGKERELVAAINWRGGSTYYADSVKGRFTISRDNAKNTVYLQMNSLKPEDTAVYYCNKRQYSARVSRSYDYWGQGTQVTVSS	high polyreactivity
QVQLVDSGGGLVQAGGSLRLSCAASGRTLYLYAMGWYRQAPGKKRELVAGISWSGTSTYYADSVKGRFTISRDNSKNTVYLQMNSLKPEDTAFYYCAADRLYVRYGYWGQGTQVTVSS	low polyreactivity
QVQLVDSGGGLVQAGGSLRLSCAASGSIFFIYAMGWYRQATGKERELVATITSGGSTYYADSVKGRFTISRDNAKNTVYLQMNSLKPEDTAVYYCAKYFVYVGYGRYDYWGQCTQVTVSS	low polyreactivity
QVQLVDSGGGLVQAGGSLRLSCAASGSIFKYYAMGWSRQAPGKERELVAAISWSGDSTYYADSVKGRFTISRDNAKNTVYLQMNSLKPEDTAVYYCAAVYPYQVPDYDYWGQGSQVTVSS	low polyreactivity
QVQLVDSGGGLVQAGGSLRLSCAASGSIFLGYAMGWYRQAPGKVREFVAAITWSGGSTYYADSVKGRFTISRDIAKNTVYLQMNSLKQEDTAVYYCAVEIWIPTWYGLSGEYDYWGQGTQVTVSS	low polyreactivity
QVQLVDSGGGLVQAGGSLRLSCAASGSIFNRYVMGWYRQAPGKERELVAAISRRGGNTYYADSVKGRFTISRDNAKNTVYLQMNSLKPEDTAVYYCAAAYRSYKQFYSYGYEYWGQGTQVTVSS	high polyreactivity
QVQLVDSGGGLVQAGGSLRLSCAASGSIFVPYAMGWYRQAPRKERELVAAISWSGGSTNYADSVKGRFTISRDNAKNTVYLQMNSLKPEDTAVYYCNARWSSWYIHSHYYYWGQGTQVTVSS	high polyreactivity
QVQLVDSGGGLVQAGGSLRLSCAASGSILGQNAMGGNRQAPGKERELVAAITRGGSSTYYADSVKGRFTISRDNAKNTVYLQMNSLKPEDTAVYYCAAYSSIGYRQISGYYWGEGTQVTVSS	low polyreactivity
QVQLVDSGGGLVQAGGSLRLSCAASGSIYNIYAMGWYRQAPGKERELVATITGIADSTYYADSVKGRFTISRDNAKNTVYLQMNSLKPEDTAVYYCAADKYVAEYDYWGQGTQVTVSS	low polyreactivity
QVQLVDSGGGLVQAGGSLRLSCAASGSTFDRNGMGWYRQAPGKERELVAAITRGGSTYYADSVKGRFTISRDNAKNTVYLQMNSLKPEDTAVYYCAKRYRGGYYYPYNYWGQGTQVTVSS	high polyreactivity
QVQLVDSGGGLVQAGGSLRLSCAASGSTFKINAMGWYRQAPGKERELVAAISSRGGPTYYADSVKGRFTISRDNAKNTVYLQMNRLKPEDTAVYYSAKRRGGSRPYYYWGQGTQVTVSS	high polyreactivity
QVQLVDSGGGLVQAGGSLRLSCAASGSTFKIYAMGWYRQAPGKERELVARITSGGSTNYADSVKGRFTISRDNAKNTVYLQMNSLKPEDTAVYYCAARRWSYSTRGQRSSNLDYWGHGTQVTVSS	high polyreactivity
QVQLVDSGGGLVQAGGSLRLSCAASGSTFLFNAMGWYRQAPGNVREVVAGISSSGGSTHYADSVKGRFTISRDNAKNTVYLQMNSLKPEDTAVYYCNAQQYLPSEGDYWGQGTQVTVSS	low polyreactivity
QVQLVDSGGGLVQAGGSLRLSCAASGSTFRGNAMGWSRQAPGKERELVAAISASGGRTYYADSVKGRFTISRDNAKNTVYLQMNSLKPEETAVYYCAVRDQTDKVPFYYWGQGTQVSVSS	high polyreactivity
QVQLVDSGGGLVQAGGSLRLSCAASGSTFSTYPMGWYRQAPGKERELVAAISRSGGTTYYADSVKGRFTISRDNAKNTVYLQMNSLKQEETAVYYCNAVTRYTQIMDYWGQGTQVTVSS	high polyreactivity
QVQLVDSGGGLVQAGGSLRLSCAASGSTFTYYAMGWYRQAPGKERELVAAIRNSDGTTYYADSVKGRFTISRDNAKNTVYLQMNSLKPEDTAVYYCAAGPRGRWSTYDYWGQGTQVTVSS	low polyreactivity
QVQLVDSGGGLVQAGGSLRLSCAASGSTFYGYTMGWYRQAPGKERELVAAITSSGGSTYYADTVKGRFTISRDNAKNTVYLQMNSLNPEDTAVYYCAARGYRHFYYWGQGTQVTVSS	high polyreactivity
QVQLVDSGGGLVQAGGSLRLSCAASGSTFYLYAMGWYRQAPGKERELVAVITTDGSTTYADSVKGRFTISRDNATNTVYLEMNSLKPEDTAVYFCAAYGGNGQYYSQYDYWGQGTQVTVSS	low polyreactivity
QVQLVDSGGGLVQAGGSLRLSCAASGTIILVYAMGWYRQAPGKERELVARITNGTGSTYYADSVKGRFTISRDNAKNTVYLQMNSLKPEDTAVYYCATGQGSSYRSGPRWYPNAFGYWGQVTQVTVSS	high polyreactivity
QVQLVDSGGGLVQAGGSLRLSCAASGYILGRYAMGWYRQAPGKERELVAAISSSGGSTYYADSVKGRFTISRDNGKNSVYLQINSLKPEDTAFYYWNVPRFYGSYNYWGQGTQVTVSS	high polyreactivity
